Assay results as given in article PMC4917298 (Nature immunology, 2016).

Target: S6K1(WT)-HA (mouse, UniProt Q8BSK8-2 1-502)
Experiment: co-IP

S6K1(WT)-HA, sequence (Q8BSK8 24-525): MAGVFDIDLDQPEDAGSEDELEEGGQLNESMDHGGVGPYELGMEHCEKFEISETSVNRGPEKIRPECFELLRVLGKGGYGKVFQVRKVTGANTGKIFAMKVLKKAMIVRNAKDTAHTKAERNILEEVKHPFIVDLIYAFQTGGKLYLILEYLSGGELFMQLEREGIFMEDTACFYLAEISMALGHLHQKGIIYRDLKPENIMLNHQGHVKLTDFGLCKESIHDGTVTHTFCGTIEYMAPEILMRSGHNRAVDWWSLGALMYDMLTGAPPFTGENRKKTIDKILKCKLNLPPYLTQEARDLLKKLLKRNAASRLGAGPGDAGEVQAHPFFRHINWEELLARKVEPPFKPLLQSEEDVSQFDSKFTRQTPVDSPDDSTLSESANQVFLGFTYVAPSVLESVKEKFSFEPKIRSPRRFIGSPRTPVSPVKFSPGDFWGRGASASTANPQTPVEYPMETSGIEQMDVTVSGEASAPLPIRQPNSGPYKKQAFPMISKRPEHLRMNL

B1: phosphorylated STING-Flag (phosphorylated by TBK1) (natural protein, mouse, UniProt Q3TBT3 1-378, looked up)
chain: MPYSNLHPAIPRPRGHRSKYVALIFLVASLMILWVAKDPPNHTLKYLALHLASHELGLLLKNLCCLAEELCHVQSRYQGSYWKAVRACLGCPIHCMAMILLSSYFYFLQNTADIYLSWMFGLLVLYKSLSMLLGLQSLTPAEVSAVCEEKKLNVAHGLAWSYYIGYLRLILPGLQARIRMFNQLHNNMLSGAGSRRLYILFPLDCGVPDNLSVVDPNIRFRDMLPQQNIDRAGIKNRVYSNSVYEILENGQPAGVCILEYATPLQTLFAMSQDAKAGFSREDRLEQAKLFCRTLEEILEDVPESRNNCRLIVYQEPTDGNSFSLSQEVLRHIRQEEKEEVTMNAPMTSVAPPPSVLSQEPRLLISGMDQPLPLRTDLI
modifications: phosphorylated by TBK1 (slower mobility, removed by calf intestine phosphatase); sites not stated
binding result: binds
